# Values joined by “and” are separate entries in the source; they are usually repeats but may differ in a detail not shown here. Equal entries are not always repeated. Where two headings read alike, the source gives them in different places. Positions of bridges follow the written chain, without caps; N, C: chain ends. Non-standard residues stand in square brackets, D forms with d.
# B1: GFB-111 (designed binder)
# peptide: GDGY
# modifications: linker N-C via 3‑aminomethyl‑5‑aminobenzamide; also: four loops on But-Calix calix[4]arene scaffold
# B2: GFB-113 (designed binder)
# peptide: GDSD
# modifications: linker N-C via 3‑aminomethyl‑5‑aminobenzamide; also: four loops on But-Calix calix[4]arene scaffold
# B3: GFB-115 (designed binder)
# peptide: GKGF
# modifications: linker N-C via 3‑aminomethyl‑5‑aminobenzamide; also: four loops on But-Calix scaffold
# B4: GFB-105 (designed binder)
# peptide: GDFD
# modifications: linker N-C via 3‑aminomethyl‑5‑aminobenzamide; also: four loops on But-Calix calix[4]arene scaffold
# B5: GFB-112 (designed binder)
# peptide: ADGD
# modifications: linker N-C via 3‑aminomethyl‑5‑aminobenzamide; also: four loops on But-Calix calix[4]arene scaffold
# B6: GFB-116 (designed binder)
# peptide: GKGK
# modifications: linker N-C via 3‑aminomethyl‑5‑aminobenzamide; also: four loops on But-Calix scaffold
# B7: GFB-108 (designed binder)
# peptide: [dA]DGD
# modifications: linker N-C via 3‑aminomethyl‑5‑aminobenzamide; also: four loops on But-Calix calix[4]arene scaffold
# Experiments:
# [1] = target: acidic fibroblast growth factor (aFGF) (UniProt P05230 16-155, limits assumed); experiment: cell-based or functional assay
# [2] = target: T1, vascular endothelial growth factor (VEGF) (UniProt P15692-4 27-191, limits assumed); experiment: cell-based or functional assay
# [3] = target: insulin-like growth factor-1 (IGF-1) (UniProt P05019); experiment: cell-based or functional assay
# [4] = target: T2, platelet derived growth factor PDGF-BB (UniProt P01127 82-190); experiment: cell-based or functional assay
# [5] = target: T1, vascular endothelial growth factor …; experiment: inhibition of [125I]-VEGF binding to NIH 3T3 cells overexpressing Flk-1, GFB-111 10 µM
# [6] = target: T2, platelet derived growth factor PDGF-BB; experiment: inhibition of [125I]-PDGF-BB binding to NIH 3T3 cells (PDGFR), 4 °C
# [7] = target: insulin-like growth factor-1 (IGF-1) (UniProt P05019 49-118); experiment: cell-based or functional assay
# [8] = target: T1, vascular endothelial growth factor …; experiment: cell-based or functional assay; remark: listed apart in the source
# [9] = target: T2, platelet derived growth factor PDGF-BB; experiment: cell-based or functional assay; remark: listed apart in the source
# [10] = target: T2, platelet derived growth factor PDGF-BB; experiment: cell-based or functional assay; remark: listed apart in the source
# [11] = target: T1, vascular endothelial growth factor …; experiment: cell-based or functional assay; remark: listed apart in the source
# T2 sequence (P01127 82-190 limits assumed): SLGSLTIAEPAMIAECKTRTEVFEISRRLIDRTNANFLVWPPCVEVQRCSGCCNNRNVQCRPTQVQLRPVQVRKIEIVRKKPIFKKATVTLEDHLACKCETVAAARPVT
# insulin-like growth factor-1 (IGF-1) (UniProt P05019 49-118), sequence (P05019 49-118 limits assumed): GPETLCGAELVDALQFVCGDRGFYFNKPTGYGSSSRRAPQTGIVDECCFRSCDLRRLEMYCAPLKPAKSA
# insulin-like growth factor-1 (IGF-1) (UniProt P05019), sequence (P05019 49-118 limits assumed): as above
# acidic fibroblast growth factor (aFGF), sequence (P05230 16-155 limits assumed): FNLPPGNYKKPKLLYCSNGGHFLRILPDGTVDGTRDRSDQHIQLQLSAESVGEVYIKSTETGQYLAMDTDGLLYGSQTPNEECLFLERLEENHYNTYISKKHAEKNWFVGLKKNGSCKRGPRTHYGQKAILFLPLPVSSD
# T1 sequence (P15692 other isoform, or with tags, fused parts or gaps limits assumed): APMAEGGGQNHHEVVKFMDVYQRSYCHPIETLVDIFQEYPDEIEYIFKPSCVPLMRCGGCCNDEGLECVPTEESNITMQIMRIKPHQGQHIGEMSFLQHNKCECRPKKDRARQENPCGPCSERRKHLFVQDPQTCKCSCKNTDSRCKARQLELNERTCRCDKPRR
Binder,"(IC50) Inhibition, p44 [1]","(IC50) Inhibition, p42 [1]","% Inhibition at 100 µM, IGF1R-Y-P [7] [%]","% Inhibition at 100 µM, p42 [7] [%]","% Inhibition at 100 µM, p44 [7] [%]","IC50, Flk-1-Y-P [8] [µM]","IC50, p42 [8]","IC50, p44 [8]","IC50, PDGFR-Y-P [9] [µM]","IC50, p42/Erk2 [9] [µM]",other results
B1,68 µM per head; likely % and 51.8 µM per head; likely %,,,,,,,,,,"IC50, Flk-1-Y-P [2]: 5 µM; IC50, VEGF-stimulated Flk-1 tyrosine phosphorylation and MAPK activation [2]: 10 µM; IC50, p42 [2]: 10 µM; IC50, p44 [2]: 10 µM; % Inhibition at 100 µM, IGF1R-Y-P [3]: -12.4%; % Inhibition at 100 µM, p42 [3]: -18.4%; % Inhibition at 100 µM, p44 [3]: 10.7%; IC50, PDGF-BB stimulated DNA synthesis ([3H]-thymidine incorporation) [4]: 6.5 µM; IC50, PDGF-dependent activation of Erk1 [4]: 0.8 µM; IC50, PDGF-dependent activation of Erk2 [4]: 1.2 µM; IC50, PDGFR-Y-P [4]: 0.25 µM; IC50, p42/Erk2 [4]: 2.6 µM; PDGF-BB stimulation of receptor tyrosine phosphorylation, complete block [4]: 3 µM; inhibition of [125I]-VEGF binding at 10 µM GFB-111 [5]: 50%; IC50 [6]: 0.25 µM"
B2,64.3 µM per head; likely %,53.6 µM per head; likely %,-18.9,-31.4,18.7,< 10,10 µM,10 µM,2.8,30,
B3,-23.9 µM per head; likely %,-21 µM per head; likely %,-38.3,-12.4,51.9,,5 µM and 10 µM,5 µM and 10 µM,> 50,> 50,"IC50, PDGF-BB-stimulated PDGF receptor tyrosine autophosphorylation [10]: 50 µM"
B4,75.7 µM per head; likely %,66.4 µM per head; likely %,1.3,,,,> 100 µM,> 100 µM,,,
B5,62.9 µM per head; likely % and 39.6 µM per head; likely %,59.7 µM per head; likely % and 40.2 µM per head; likely %,0.6,-7.6,30.4,< 10,10 µM,10 µM,29,26,
B6,97.5 µM per head; likely % and 97.2 µM per head; likely % and 116 µM per head; likely % and 99.9 µM per head; likely %,99.2 µM per head; likely % and 99.6 µM per head; likely % and 102 µM per head; likely % and 99.7 µM per head; likely %,,,,0.3,5 µM,5 µM,,,"(IC50) Inhibition, p42 (mean) [1]: 100 µM per head; likely %; (IC50) Inhibition, p44 (mean) [1]: 103 µM per head; likely %; IC50, PDGFR-Y-P [4]: 40 µM; IC50, p42/Erk2 [4]: 28 µM; IC50, VEGF-stimulated flk-1 tyrosine phosphorylation [11]: 3000 µM"
B7,80.1 µM per head; likely %,67.8 µM per head; likely %,,67.8,80.1,10,50 µM,50 µM,9,57,

# From US20060084596A1 (UNIVERSITY OF SOUTH FLORIDA, published 2006)
